Where two headings read alike, the source gives them in different places.

Data set [1] has as its target Macaca mulatta TLR7 extracellular domain (Macaca mulatta). In words: cryo-EM structure.
Data set [2] shares this target. In words: cryo-EM structure. This is another data set of the same source.
Data set [3] has as its target T1, TLR8 extracellular domain (Homo sapiens, UniProt Q9NR97 27-827).
T1 sequence: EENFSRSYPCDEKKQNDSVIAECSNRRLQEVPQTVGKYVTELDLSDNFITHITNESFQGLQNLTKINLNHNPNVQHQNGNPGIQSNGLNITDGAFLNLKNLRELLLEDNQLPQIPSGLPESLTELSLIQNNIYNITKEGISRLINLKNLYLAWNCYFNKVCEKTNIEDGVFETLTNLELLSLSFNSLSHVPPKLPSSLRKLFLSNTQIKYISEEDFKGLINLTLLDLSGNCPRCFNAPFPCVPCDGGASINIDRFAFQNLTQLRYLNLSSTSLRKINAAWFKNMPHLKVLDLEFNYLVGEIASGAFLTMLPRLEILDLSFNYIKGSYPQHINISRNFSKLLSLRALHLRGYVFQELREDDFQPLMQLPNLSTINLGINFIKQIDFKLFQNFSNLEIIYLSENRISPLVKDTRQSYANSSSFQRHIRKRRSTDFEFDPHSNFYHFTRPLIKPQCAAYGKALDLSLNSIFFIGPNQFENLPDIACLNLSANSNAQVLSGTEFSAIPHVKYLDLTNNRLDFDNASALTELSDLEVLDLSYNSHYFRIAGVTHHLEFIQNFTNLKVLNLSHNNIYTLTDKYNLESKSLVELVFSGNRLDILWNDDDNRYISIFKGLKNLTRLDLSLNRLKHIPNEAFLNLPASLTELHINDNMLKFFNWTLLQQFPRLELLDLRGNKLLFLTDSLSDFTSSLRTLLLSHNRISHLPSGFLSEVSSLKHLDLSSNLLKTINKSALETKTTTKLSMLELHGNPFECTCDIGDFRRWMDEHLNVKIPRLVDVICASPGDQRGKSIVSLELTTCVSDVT
The data set can be described thus: SPR. (SPR reads the build-up and loss of mass on a sensor chip optically.)

Data set [4] deals with T1, TLR8 extracellular domain. The data set can be described thus: SPR. This is another data set of the same source.

Broadly, the stoichiometry N is the number of molecules, sites or subunits per partner or assembly. Turning to “Macaca mulatta TLR7 extracellular domain (receptor)”, the stoichiometry N in data set [1] and in data set [2] was 2 each time.

The term Kd denotes the equilibrium constant for the complex coming apart. Higher therefore signals lower affinity. In data set [3], GAG (XNA, 2'-OMe at G1 and A2; DNA G3; phosphorothioate linkages, stereorandom) [GAG-v1 (mGmAdG)] registered a Kd of 4 µM.

GCC (XNA, 2'-OMe at G1; DNA C2 and C3; phosphorothioate linkages, stereorandom) [GCC-v4 (mGdCdC)] had a dissociation constant (Kd) in data set [4] of 8 µM.

The values above are taken from publication doi:10.1101/2024.07.25.605091.
